Tested on: Escherichia coli TOP10
Experiment: shrunken log2 fold change of peptide-encoding DNA abundance (4.5 h post-induction vs induction); higher = less antimicrobial activity (less host growth inhibition)
Details: time post-induction: 4.5 h; library: site-saturation at positions 5, 18, 19, 20
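Note: peptides expressed intracellularly from a pBAD plasmid library in pooled LB shake-flask culture, induced with 0.3% L-arabinose, DNA abundance read by NGS, three biological replicates, DESeq2 with apeglm shrinkage.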

Row | Sequence | shrunken log2 fold change
1 | RRIRIRPPRLPRPRPRPPISPRP | -0.391
2 | RRIRIRPPRLPRPRPRPPKIPRP | -0.106
3 | RRIRIRPPRLPRPRPRPPKLPRP | 0.0517
4 | RRIRIRPPRLPRPRPRPPLCPRP | 0.142
5 | RRIRIRPPRLPRPRPRPPLSPRP | -0.128
6 | RRIRIRPPRLPRPRPRPPNEPRP | -0.365
7 | RRIRIRPPRLPRPRPRPPNHPRP | -0.475
8 | RRIRIRPPRLPRPRPRPPPLPRP | 0.302
9 | RRIRIRPPRLPRPRPRPPQEPRP | -0.0258
10 | RRIRIRPPRLPRPRPRPPQQPRP | 0.197
11 | RRIRIRPPRLPRPRPRPPRNPRP | 0.217
12 | RRIRIRPPRLPRPRPRPPVEPRP | -0.0536
13 | RRIRIRPPRLPRPRPRPPWCPRP | 1.45
14 | RRIRIRPPRLPRPRPRPQCMPRP | -0.836
15 | RRIRIRPPRLPRPRPRPQDIPRP | -0.461
16 | RRIRIRPPRLPRPRPRPQDPPRP | -0.235
17 | RRIRIRPPRLPRPRPRPQDSPRP | -0.269
18 | RRIRIRPPRLPRPRPRPQDVPRP | -0.0964
19 | RRIRIRPPRLPRPRPRPQESPRP | -0.617
20 | RRIRIRPPRLPRPRPRPQFSPRP | -0.371
21 | RRIRIRPPRLPRPRPRPQGLPRP | 0.0413
22 | RRIRIRPPRLPRPRPRPQGMPRP | -0.501
23 | RRIRIRPPRLPRPRPRPQHCPRP | -0.248
24 | RRIRIRPPRLPRPRPRPQICPRP | -0.0396
25 | RRIRIRPPRLPRPRPRPQIRPRP | -0.64

Row | Sequence | shrunken log2 fold change
26 | RRIRIRPPRLPRPRPRPQKAPRP | 0.0173
27 | RRIRIRPPRLPRPRPRPQKEPRP | -0.0177
28 | RRIRIRPPRLPRPRPRPQLNPRP | -0.499
29 | RRIRIRPPRLPRPRPRPQMAPRP | -0.064
30 | RRIRIRPPRLPRPRPRPQNLPRP | -0.261
31 | RRIRIRPPRLPRPRPRPQQDPRP | -0.442
32 | RRIRIRPPRLPRPRPRPQQSPRP | -0.113
33 | RRIRIRPPRLPRPRPRPQVAPRP | -0.333
34 | RRIRIRPPRLPRPRPRPQVLPRP | -0.338
35 | RRIRIRPPRLPRPRPRPQYPPRP | -0.32
36 | RRIRIRPPRLPRPRPRPRACPRP | -0.148
37 | RRIRIRPPRLPRPRPRPRDNPRP | -0.348
38 | RRIRIRPPRLPRPRPRPREMPRP | 0.00525
39 | RRIRIRPPRLPRPRPRPRGWPRP | 0.385
40 | RRIRIRPPRLPRPRPRPRGYPRP | -0.794
41 | RRIRIRPPRLPRPRPRPRHCPRP | 0.0849
42 | RRIRIRPPRLPRPRPRPRHFPRP | -0.00457
43 | RRIRIRPPRLPRPRPRPRHWPRP | -0.12
44 | RRIRIRPPRLPRPRPRPRIHPRP | -0.287
45 | RRIRIRPPRLPRPRPRPRIKPRP | -0.466
46 | RRIRIRPPRLPRPRPRPRKFPRP | -0.000367
47 | RRIRIRPPRLPRPRPRPRQIPRP | -0.212
48 | RRIRIRPPRLPRPRPRPRQNPRP | -0.459
49 | RRIRIRPPRLPRPRPRPRRLPRP | -0.0824
50 | RRIRIRPPRLPRPRPRPRRRPRP | 0.169

Row | Sequence | shrunken log2 fold change
51 | RRIRIRPPRLPRPRPRPRTDPRP | -0.158
52 | RRIRIRPPRLPRPRPRPRTPPRP | 0.089
53 | RRIRIRPPRLPRPRPRPRVFPRP | 0.0961
54 | RRIRIRPPRLPRPRPRPRWYPRP | -0.452
55 | RRIRIRPPRLPRPRPRPSAWPRP | 0.0616
56 | RRIRIRPPRLPRPRPRPSCQPRP | -0.0446
57 | RRIRIRPPRLPRPRPRPSCWPRP | -0.322
58 | RRIRIRPPRLPRPRPRPSFLPRP | -1.11
59 | RRIRIRPPRLPRPRPRPSHEPRP | -0.159
60 | RRIRIRPPRLPRPRPRPSKIPRP | -0.441
61 | RRIRIRPPRLPRPRPRPSKNPRP | -0.76
62 | RRIRIRPPRLPRPRPRPSMPPRP | -0.339
63 | RRIRIRPPRLPRPRPRPSNAPRP | -0.0615
64 | RRIRIRPPRLPRPRPRPSNHPRP | -1.15
65 | RRIRIRPPRLPRPRPRPSNPPRP | -0.74
66 | RRIRIRPPRLPRPRPRPSPKPRP | -0.178
67 | RRIRIRPPRLPRPRPRPSPLPRP | -0.499
68 | RRIRIRPPRLPRPRPRPSPQPRP | -0.512
69 | RRIRIRPPRLPRPRPRPSRNPRP | -0.124
70 | RRIRIRPPRLPRPRPRPSSIPRP | -0.169
71 | RRIRIRPPRLPRPRPRPSYVPRP | -1.22
72 | RRIRIRPPRLPRPRPRPTDAPRP | -0.0317
73 | RRIRIRPPRLPRPRPRPTDWPRP | 0.0724
74 | RRIRIRPPRLPRPRPRPTECPRP | 0.00877
75 | RRIRIRPPRLPRPRPRPTEDPRP | 0.267

Row | Sequence | shrunken log2 fold change
76 | RRIRIRPPRLPRPRPRPTFWPRP | 0.407
77 | RRIRIRPPRLPRPRPRPTGFPRP | -0.0748
78 | RRIRIRPPRLPRPRPRPTHMPRP | 0.578
79 | RRIRIRPPRLPRPRPRPTIKPRP | -0.611
80 | RRIRIRPPRLPRPRPRPTKKPRP | 0.0727
81 | RRIRIRPPRLPRPRPRPTLHPRP | -0.377
82 | RRIRIRPPRLPRPRPRPTLYPRP | -0.348
83 | RRIRIRPPRLPRPRPRPTMMPRP | -0.0891
84 | RRIRIRPPRLPRPRPRPTNKPRP | -0.687
85 | RRIRIRPPRLPRPRPRPTQDPRP | -0.236
86 | RRIRIRPPRLPRPRPRPTQKPRP | 0.0769
87 | RRIRIRPPRLPRPRPRPTRMPRP | 0.0519
88 | RRIRIRPPRLPRPRPRPTTDPRP | -0.0551
89 | RRIRIRPPRLPRPRPRPTTPPRP | 0.552
90 | RRIRIRPPRLPRPRPRPTTVPRP | -0.319
91 | RRIRIRPPRLPRPRPRPTWVPRP | -0.022
92 | RRIRIRPPRLPRPRPRPTYPPRP | -0.592
93 | RRIRIRPPRLPRPRPRPVAVPRP | -0.104
94 | RRIRIRPPRLPRPRPRPVDLPRP | 0.0939
95 | RRIRIRPPRLPRPRPRPVFCPRP | -0.321
96 | RRIRIRPPRLPRPRPRPVFGPRP | -0.0092
97 | RRIRIRPPRLPRPRPRPVFKPRP | -0.25
98 | RRIRIRPPRLPRPRPRPVGAPRP | 0.475
99 | RRIRIRPPRLPRPRPRPVHLPRP | -0.0973
100 | RRIRIRPPRLPRPRPRPVHTPRP | -0.4

Row | Sequence | shrunken log2 fold change
101 | RRIRIRPPRLPRPRPRPVKHPRP | -0.107
102 | RRIRIRPPRLPRPRPRPVMWPRP | -0.0605
103 | RRIRIRPPRLPRPRPRPVNCPRP | -0.34
104 | RRIRIRPPRLPRPRPRPVPRPRP | 0.0562
105 | RRIRIRPPRLPRPRPRPVPVPRP | 0.0789
106 | RRIRIRPPRLPRPRPRPVQLPRP | -0.0585
107 | RRIRIRPPRLPRPRPRPVREPRP | 0.201
108 | RRIRIRPPRLPRPRPRPVRKPRP | -0.48
109 | RRIRIRPPRLPRPRPRPVRSPRP | 0.373
110 | RRIRIRPPRLPRPRPRPVSCPRP | -0.0157
111 | RRIRIRPPRLPRPRPRPVTYPRP | -0.275
112 | RRIRIRPPRLPRPRPRPVVNPRP | -0.356
113 | RRIRIRPPRLPRPRPRPVWQPRP | 0.536
114 | RRIRIRPPRLPRPRPRPVWVPRP | 0.107
115 | RRIRIRPPRLPRPRPRPVYLPRP | -0.0309
116 | RRIRIRPPRLPRPRPRPWCFPRP | -0.596
117 | RRIRIRPPRLPRPRPRPWDKPRP | -0.0749
118 | RRIRIRPPRLPRPRPRPWEPPRP | -0.146
119 | RRIRIRPPRLPRPRPRPWGWPRP | 0.0753
120 | RRIRIRPPRLPRPRPRPWLPPRP | -0.325
121 | RRIRIRPPRLPRPRPRPWLVPRP | -0.038
122 | RRIRIRPPRLPRPRPRPWMRPRP | -0.37
123 | RRIRIRPPRLPRPRPRPWQDPRP | -0.0109
124 | RRIRIRPPRLPRPRPRPWQQPRP | 0.0529
125 | RRIRIRPPRLPRPRPRPWRFPRP | -0.105

Row | Sequence | shrunken log2 fold change
126 | RRIRIRPPRLPRPRPRPWRPPRP | 0.145
127 | RRIRIRPPRLPRPRPRPWSEPRP | -0.0763
128 | RRIRIRPPRLPRPRPRPWTLPRP | -0.0808
129 | RRIRIRPPRLPRPRPRPWYTPRP | -0.122
130 | RRIRIRPPRLPRPRPRPYAKPRP | -0.207
131 | RRIRIRPPRLPRPRPRPYAMPRP | -0.411
132 | RRIRIRPPRLPRPRPRPYEKPRP | -0.352
133 | RRIRIRPPRLPRPRPRPYFDPRP | -0.711
134 | RRIRIRPPRLPRPRPRPYGCPRP | 0.0504
135 | RRIRIRPPRLPRPRPRPYIGPRP | -0.775
136 | RRIRIRPPRLPRPRPRPYINPRP | -1.08
137 | RRIRIRPPRLPRPRPRPYKPPRP | -0.0367
138 | RRIRIRPPRLPRPRPRPYMFPRP | -0.892
139 | RRIRIRPPRLPRPRPRPYMVPRP | -0.377
140 | RRIRIRPPRLPRPRPRPYNGPRP | -0.0564
141 | RRIRIRPPRLPRPRPRPYNHPRP | -0.138
142 | RRIRIRPPRLPRPRPRPYNTPRP | -0.725
143 | RRIRIRPPRLPRPRPRPYPCPRP | -0.028
144 | RRIRIRPPRLPRPRPRPYRCPRP | -0.0728
145 | RRIRIRPPRLPRPRPRPYSDPRP | -0.186
146 | RRIRIRPPRLPRPRPRPYTIPRP | -0.605
147 | RRIRIRPPRLPRPRPRPYTKPRP | -0.203
148 | RRIRIRPPRLPRPRPRPYTPPRP | -0.825
149 | RRIRIRPPRLPRPRPRPYVDPRP | -0.0276
150 | RRIRIRPPRLPRPRPRPYYNPRP | -0.679
